Changes are numbered by the printed parent chain. Non-standard residues stand in square brackets, D forms with d. No end group written: not given here. αMePhe(2-F) = C[C@](N)(Cc1ccccc1F)C(=O)O; Aib = CC(C)(N)C(=O)O
T1: human GIP receptor (human) (UniProt P48546)
T1 sequence (looked up): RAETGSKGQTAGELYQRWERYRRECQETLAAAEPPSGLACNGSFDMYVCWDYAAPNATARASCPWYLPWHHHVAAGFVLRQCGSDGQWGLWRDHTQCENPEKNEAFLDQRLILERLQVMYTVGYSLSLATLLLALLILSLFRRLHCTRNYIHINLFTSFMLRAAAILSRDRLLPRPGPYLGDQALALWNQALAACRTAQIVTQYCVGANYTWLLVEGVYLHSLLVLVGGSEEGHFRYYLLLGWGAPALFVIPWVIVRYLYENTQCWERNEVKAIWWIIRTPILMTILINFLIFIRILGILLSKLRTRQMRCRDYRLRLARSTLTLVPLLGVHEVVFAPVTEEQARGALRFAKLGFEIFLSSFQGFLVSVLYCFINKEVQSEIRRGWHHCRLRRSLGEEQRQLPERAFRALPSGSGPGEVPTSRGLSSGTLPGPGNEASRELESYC

B1: Example 402 (peptide)
chain: YXQGTXTSDYXIXLDXKAQXXFIEXLEEGGPSSGEPPPE
modifications: synthetic construct; SITE 2: note = 2-Aminoisobutyric Acid; SITE 6: note = alpha-methyl-2-fluoro-L-phenylalanine; SITE 11: note = alpha-methyl-L-serine; SITE 13: note = alpha-methyl-leucine; SITE 16: note = L-ornithine; SITE 17: note = Lysine is chemically modified through conjugation of the epsilon
B2: Example 420 (peptide)
chain: B1 chain with X21A, X25Y, E27L
modifications: synthetic construct; SITE 2: note = 2-Aminoisobutyric Acid; SITE 6: note = alpha-methyl-L-phenylalanine; SITE 11: note = alpha-methyl-L-serine; SITE 13: note = alpha-methyl-leucine; SITE 16: note = L-ornithine; SITE 17: note = Lysine is chemically modified through conjugation of the epsilon-amino gr
B3: Example 410 (peptide)
chain: Y[Aib]QGT[αMePhe(2-F)]TSDYSILLDAKAFIEYLEEGGPSSGAPPPSEG-NH2
modifications: not fully specified (residue 17)
B4: Example 401 (peptide)
chain: YXQGTXTSDXXIXLDXKAQXXFIEXLIEGGPSSGEPPPSEG
modifications: synthetic construct; SITE 2: note = 2-Aminoisobutyric Acid; SITE 6: note = alpha-methyl-2-fluoro-L-phenylalanine; SITE 10: note = 3-(4-Pyridyl)-L-alanine; SITE 11: note = alpha-methyl-L-serine; SITE 13: note = alpha-methyl-leucine; SITE 16: note = L-ornithine; SITE 17: note = Lysine is chemically mo
B5: Example 403 (peptide)
chain: B4 chain with X10Y, I27E, S39E
modifications: synthetic construct; SITE 2: note = 2-Aminoisobutyric Acid; SITE 6: note = alpha-methyl-2-fluoro-L-phenylalanine; SITE 11: note = alpha-methyl-L-serine; SITE 13: note = alpha-methyl-leucine; SITE 16: note = L-ornithine; SITE 17: note = Lysine is chemically modified through conjugation of the epsilon
B6: Example 36 (peptide)
chain: YXQGTFTSDFSKXLDKKAQXAFIEYLLEGGPSSGEPPPTEG
modifications: C-terminal amide; acylated lysine; synthetic construct; SITE 2: note = 2-Aminoisobutyric Acid; SITE 13: note = alpha-methyl-leucine; SITE 17: note = Lysine is chemically modified through conjugation of the epsilon-amino group of the Lysine side chain with (2-[2-(2-Amino-ethoxy)-ethoxy]-acetyl)-(gamma-Glu)-CO-(CH2) 18-CO2H; SITE 20: n
B7: Example 405 (peptide)
chain: B6 chain with L27A, E28A, T39S, E40G, G41E
modifications: synthetic construct; SITE 2: note = 2-Aminoisobutyric Acid; SITE 13: note = alpha-methyl-leucine; SITE 17: note = Lysine is chemically modified through conjugation of the epsilon-amino group of the Lysine side chain with (epsilon-K)2-(gamma-Glu)-CO-(CH2)18-CO2H; SITE 20: note = 2-Aminoisobutyric Aci
B8: Example 395 (peptide)
chain: YXQGTXTSDYSIXLDKKAQXAFIEYLEEGGPSSGAPPPSEG
modifications: synthetic construct; SITE 2: note = 2-Aminoisobutyric Acid; SITE 6: note = alpha-methyl-L-phenylalanine; SITE 13: note = alpha-methyl-leucine; SITE 17: note = Lysine is chemically modified through conjugation of the epsilon-amino group of the Lysine side chain with (2-[2-(2-Amino-ethoxy)-ethoxy]-ace)
B9: Example 399 (peptide)
chain: B8 chain with X13L, S39E
modifications: synthetic construct; SITE 2: note = 2-Aminoisobutyric Acid; SITE 6: note = alpha-methyl-2-fluoro-L-phenylalanine; SITE 17: note = Lysine is chemically modified through conjugation of the epsilon-amino group of the Lysine side chain with (2-[2-(2-Amino-ethoxy)-ethoxy]-acetyl)-(gamma-Glu)-CO-(CH2) 16-
B10: Example 417 (peptide)
chain: B8 chain with E27L, G29T
modifications: synthetic construct; SITE 2: note = 2-Aminoisobutyric Acid; SITE 6: note = alpha-methyl-2-fluoro-L-phenylalanine; SITE 13: note = alpha-methyl-leucine; SITE 17: note = Lysine is chemically modified through conjugation of the epsilon-amino group of the Lysine side chain with (2-[2-(2-Amino-ethoxy)-et)
B11: Example 404 (peptide)
chain: B8 chain with K16X, E27L
modifications: synthetic construct; SITE 2: note = 2-Aminoisobutyric Acid; SITE 6: note = alpha-methyl-2-fluoro-L-phenylalanine; SITE 13: note = alpha-methyl-leucine; SITE 16: note = L-ornithine; SITE 17: note = Lysine is chemically modified through conjugation of the epsilon-amino group of the Lysine side chain w
B12: Example 412 (peptide)
chain: B8 chain with X13L, Y25F
modifications: not fully specified; synthetic construct; SITE 2: note = 2-Aminoisobutyric Acid; SITE 6: note = alpha-methyl-2-fluoro-L-phenylalanine; SITE 17: note = Lysine is chemically modified through conjugation of the epsilon-amino group of the Lysine side chain with (2-[2-(2-Amino-ethoxy)-ethoxy]-acetyl)-(gamma-Glu)-CO-(CH2) 16-
B13: Example 398 (peptide)
chain: B8 chain with X13L
modifications: not fully specified; synthetic construct; SITE 2: note = 2-Aminoisobutyric Acid; SITE 6: note = alpha-methyl-2-fluoro-L-phenylalanine; SITE 17: note = Lysine is chemically modified through conjugation of the epsilon-amino group of the Lysine side chain with (2-[2-(2-Amino-ethoxy)-ethoxy]-acetyl)-(gamma-Glu)-CO-(CH2) 16-
B14: Example 411 (peptide)
chain: B8 chain with X13L, Y25X
modifications: synthetic construct; SITE 2: note = 2-Aminoisobutyric Acid; SITE 6: note = alpha-methyl-2-fluoro-L-phenylalanine; SITE 17: note = Lysine is chemically modified through conjugation of the epsilon-amino group of the Lysine side chain with (2-[2-(2-Amino-ethoxy)-ethoxy]-acetyl)-(gamma-Glu)-CO-(CH2) 16-

target: human glucagon receptor (human) (UniProt P47871); assay: cell-based or functional assay
Sequence (P47871 26-477): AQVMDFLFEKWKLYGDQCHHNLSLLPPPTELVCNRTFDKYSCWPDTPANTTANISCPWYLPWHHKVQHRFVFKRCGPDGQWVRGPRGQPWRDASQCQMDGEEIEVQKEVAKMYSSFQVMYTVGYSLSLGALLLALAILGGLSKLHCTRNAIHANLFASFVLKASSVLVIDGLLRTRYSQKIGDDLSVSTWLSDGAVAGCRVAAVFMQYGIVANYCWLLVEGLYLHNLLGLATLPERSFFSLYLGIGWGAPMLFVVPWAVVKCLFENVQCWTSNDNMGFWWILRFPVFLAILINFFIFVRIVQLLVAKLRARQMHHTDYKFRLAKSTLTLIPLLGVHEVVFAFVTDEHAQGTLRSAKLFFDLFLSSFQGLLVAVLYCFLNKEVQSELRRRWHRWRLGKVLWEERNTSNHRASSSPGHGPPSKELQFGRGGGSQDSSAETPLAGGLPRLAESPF

| Binder | Relative cAMP EC50 | cAMP Rel EC50, nM (1% HSA) | cAMP Rel EC50 (in the presence of 1% HSA) |
| --- | --- | --- | --- |
| B1 | 5.66 nM | 1030 nM |  |
| B2 | 2.49 nM | 433 nM |  |
| B3 | 9.94 nM | 1950 nM |  |
| B4 | 1.99 nM | 111 nM |  |
| B5 | 1.59 nM | 527 nM |  |
| B6 | 4.32 nM |  | 1330 nM |
| B7 | 15.5 nM | 2530 nM |  |
| B8 | 5.55 nM | 1190 nM |  |
| B9 | 1.51 nM | 560 nM |  |
| B10 | 2.83 nM | 386 nM |  |
| B11 | 4.1 nM | 735 nM |  |
| B12 | 2.36 nM | 467 nM |  |
| B13 | 2.16 nM | 375 nM |  |
| B14 | 3.94 nM | 1170 nM |  |

target: hGLP-1R (Homo sapiens, UniProt P43220); assay: cell-based or functional assay
Sequence (P43220 24-463): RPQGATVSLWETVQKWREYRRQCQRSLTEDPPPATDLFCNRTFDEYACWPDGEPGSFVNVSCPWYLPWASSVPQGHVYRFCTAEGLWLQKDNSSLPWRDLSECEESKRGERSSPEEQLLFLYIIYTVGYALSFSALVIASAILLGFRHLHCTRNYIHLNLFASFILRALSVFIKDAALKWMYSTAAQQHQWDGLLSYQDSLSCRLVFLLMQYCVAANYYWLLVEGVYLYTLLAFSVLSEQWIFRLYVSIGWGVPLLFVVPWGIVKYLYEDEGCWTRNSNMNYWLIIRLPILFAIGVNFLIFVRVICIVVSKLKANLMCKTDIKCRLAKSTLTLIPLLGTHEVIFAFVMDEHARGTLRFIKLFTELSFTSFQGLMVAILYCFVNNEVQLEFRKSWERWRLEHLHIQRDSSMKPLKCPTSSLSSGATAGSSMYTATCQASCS

| Binder | Relative cAMP EC50 | cAMP Rel EC50, nM (1% HSA) | cAMP Rel EC50 (in the presence of 1% HSA) |
| --- | --- | --- | --- |
| B1 | 0.725 nM | 86.6 nM |  |
| B2 | 0.205 nM | 31.3 nM |  |
| B3 | 0.354 nM | 84.4 nM |  |
| B4 | 0.213 nM | 12 nM |  |
| B5 | 0.396 nM | 70 nM |  |
| B6 | 3.57 nM |  | 1360 nM |
| B7 | 1.48 nM | 285 nM |  |
| B8 | 0.349 nM | 34.7 nM |  |
| B9 | 0.302 nM | 42.8 nM |  |
| B10 | 0.328 nM | 67 nM |  |
| B11 | 0.217 nM | 32.2 nM |  |
| B12 | 0.282 nM | 46 nM |  |
| B13 | 0.186 nM | 42.2 nM |  |
| B14 | 0.709 nM | 82.1 nM |  |

target: T1, human GIP receptor (human); assay: cell-based or functional assay

| Binder | Relative cAMP EC50 | cAMP Rel EC50, nM (1% HSA) | cAMP Rel EC50 (in the presence of 1% HSA) |
| --- | --- | --- | --- |
| B1 | 0.123 nM | 44.9 nM |  |
| B2 | 0.0131 nM | 2.61 nM |  |
| B3 | 0.0708 nM | 49.3 nM |  |
| B4 | 0.0183 nM | 1.71 nM |  |
| B5 | 0.0827 nM | 36.9 nM |  |
| B6 | 0.482 nM |  | 170 nM |
| B7 | 0.28 nM | 32.1 nM |  |
| B8 | 0.0248 nM | 6.69 nM |  |
| B9 | 0.0413 nM | 19.6 nM |  |
| B10 | 0.0144 nM | 4.46 nM |  |
| B11 | 0.0102 nM | 2.03 nM |  |
| B12 | 0.0351 nM | 12.5 nM |  |
| B13 | 0.0318 nM | 12.4 nM |  |
| B14 | 0.058 nM | 23.8 nM |  |

Source: US20240270821A1, “GIP/GLP1/GCG TRI-RECEPTOR AGONISTS AND USES THEREOF” (priority 2023, published 2024)
